B1: Poly(rC)-binding protein 1, residues 278 to 350; numbered along this chain, Q15365 (parent)
chain: TQTTHELTIPNNLIGCIIGRQGANINEIRQMSGAQIKIANPVEGSSGRQVTITGSAASISLAQYLINARLSSE

± gives the uncertainty stated by the source.

In the series the parent is B1. The series can be described thus: abundance fitness (aPCA) (normalised: wild type 0, dead -1); higher = more abundant; growth selection in yeast, the domain comes from the species named. The following applies: Homo sapiens.
Regarding G15D, the abundance fitness was determined as 0.002 ± 0.093.

Take G15M: the abundance fitness is 0 ± 0.065.

As for G15Q, the abundance fitness was -0.162 ± 0.073.

Regarding G15V, the abundance fitness is -0.526 ± 0.066.

With G15Y, the abundance fitness was -0.046 ± 0.097.

In the case of G15K, the abundance fitness is -0.083 ± 0.083.

Turning to G15I, the abundance fitness is -0.751 ± 0.32.

Turning to G15L, the abundance fitness is -0.465 ± 0.071.

Consider G15N, for which the abundance fitness stood at 0.016 ± 0.15.

Take G15E: the abundance fitness is -0.062 ± 0.05.

Take G15F: the abundance fitness was -0.438 ± 0.24.

For G15T, the abundance fitness is -0.03 ± 0.073.

Take G15A: the abundance fitness is -0.092 ± 0.047.

Turning to G15H, the abundance fitness is -0.072 ± 0.12.

As for G15S, the abundance fitness was -0.035 ± 0.051.

Turning to G15W, the abundance fitness is -0.14 ± 0.054.

In the case of G15C, the abundance fitness is -0.353 ± 0.093.

For the variant G15R, the abundance fitness was -0.136 ± 0.043.

As to R20D, the abundance fitness worked out at 0.042 ± 0.12.

For the variant R20V, the abundance fitness was -0.031 ± 0.043.

Consider R20P, for which the abundance fitness was 0.155 ± 0.053.

In the case of R20N, the abundance fitness stood at 0.27 ± 0.09.

On to R20S, for which the abundance fitness was -0.082 ± 0.043.

Regarding R20K, the abundance fitness was 0.048 ± 0.071.

On to R20L, for which the abundance fitness was -0.035 ± 0.04.

For the variant R20A, the abundance fitness came to 0.028 ± 0.038.

In the case of R20I, the abundance fitness was -0.074 ± 0.12.

For R20H, the abundance fitness came out at 0.139 ± 0.1.

With R20C, the abundance fitness is -0.04 ± 0.068.

Take R20M: the abundance fitness was -0.138 ± 0.064.

For the variant R20T, the abundance fitness is -0.167 ± 0.067.

R20F: the abundance fitness is 0.1 ± 0.1.

Regarding R20E, the abundance fitness was 0.012 ± 0.062.

R20Q: the abundance fitness was -0.008 ± 0.064.

As for R20Y, the abundance fitness worked out at 0.019 ± 0.093.

R20W: the abundance fitness was -0.188 ± 0.053.

Turning to R20G, the abundance fitness was -0.173 ± 0.038.

For I25V, the abundance fitness was -0.308 ± 0.053.

Turning to I25P, the abundance fitness was -0.84 ± 0.19.

With I25W, the abundance fitness was -0.622 ± 0.094.

For the variant I25K, the abundance fitness is -0.873 ± 0.18.

Regarding I25R, the abundance fitness is -0.803 ± 0.08.

Take I25H: the abundance fitness came to 0.296 ± 0.24.

Take I25C: the abundance fitness is -1.01 ± 0.29.

Turning to I25A, the abundance fitness is -0.565 ± 0.072.

Take I25T: the abundance fitness is -0.367 ± 0.095.

Regarding I25S, the abundance fitness was -0.674 ± 0.095.

For the variant I25N, the abundance fitness is -0.931 ± 0.35.

I25L: the abundance fitness was -0.072 ± 0.049.

In the case of I25Q, the abundance fitness is -0.564 ± 0.12.

On to I25M, for which the abundance fitness was -0.169 ± 0.05.

As to I25F, the abundance fitness is -0.539 ± 0.13.

On to I25G, for which the abundance fitness was -0.58 ± 0.057.

In the case of I25D, the abundance fitness was -0.908 ± 0.41.

With I14S, the abundance fitness is -0.367 ± 0.067.

Regarding I14F, the abundance fitness is -0.378 ± 0.17.

Take I14V: the abundance fitness is -0.116 ± 0.042.

As to I14R, the abundance fitness is -0.573 ± 0.072.

Turning to I14L, the abundance fitness was -0.115 ± 0.055.

Turning to I14C, the abundance fitness is -0.252 ± 0.088.

I14W: the abundance fitness is -0.689 ± 0.11.

I14H: the abundance fitness is -0.485 ± 0.24.

Regarding I14N, the abundance fitness is -0.762 ± 0.26.

With I14D, the abundance fitness is -0.876 ± 0.14.

I14G: the abundance fitness is -0.948 ± 0.089.

I14E: the abundance fitness is -0.769 ± 0.13.

For I14M, the abundance fitness is -0.118 ± 0.07.

As to I14K, the abundance fitness is -0.855 ± 0.23.

For I14T, the abundance fitness is -0.17 ± 0.09.

I14P: the abundance fitness was -0.647 ± 0.14.

For I14A, the abundance fitness is -0.228 ± 0.055.

For the variant I14Q, the abundance fitness is -0.73 ± 0.16.

As to N26M, the abundance fitness was -0.094 ± 0.047.

For the variant N26G, the abundance fitness was -0.27 ± 0.038.

On to N26L, for which the abundance fitness was -0.291 ± 0.044.

Consider N26R, for which the abundance fitness is 0.032 ± 0.028.

In the case of N26Q, the abundance fitness worked out at 0.025 ± 0.05.

With N26P, the abundance fitness was -0.682 ± 0.092.

N26C: the abundance fitness is -0.196 ± 0.069.

N26D: the abundance fitness was -0.08 ± 0.086.

Consider N26F, for which the abundance fitness was -0.354 ± 0.1.

As for N26S, the abundance fitness is -0.003 ± 0.041.

On to N26K, for which the abundance fitness came out at 0.104 ± 0.048.

N26A: the abundance fitness was -0.002 ± 0.041.

Take N26T: the abundance fitness was -0.022 ± 0.049.

As for N26E, the abundance fitness was -0.035 ± 0.046.

For the variant N26H, the abundance fitness was -0.193 ± 0.11.

With N26I, the abundance fitness was -0.119 ± 0.096.

As to N26V, the abundance fitness was -0.327 ± 0.042.

Consider N26W, for which the abundance fitness is -0.34 ± 0.047.

N24F: the abundance fitness is -0.13 ± 0.11.

For the variant N24Q, the abundance fitness was 0.002 ± 0.056.

As to N24V, the abundance fitness was -0.048 ± 0.046.

As to N24E, the abundance fitness was -0.01 ± 0.063.

For the variant N24A, the abundance fitness worked out at 0.007 ± 0.041.

With N24H, the abundance fitness is -0.049 ± 0.067.

Take N24M: the abundance fitness was found to be 0.038 ± 0.073.

In the case of N24S, the abundance fitness is -0.033 ± 0.046.

As for N24C, the abundance fitness was -0.196 ± 0.077.

As for N24I, the abundance fitness was -0.06 ± 0.12.

Turning to N24Y, the abundance fitness came out at 0.01 ± 0.14.

N24W: the abundance fitness is -0.161 ± 0.048.

With N24R, the abundance fitness is 0.066 ± 0.032.

For the variant N24L, the abundance fitness is -0.134 ± 0.042.

With N24P, the abundance fitness was -0.088 ± 0.048.

Regarding N24K, the abundance fitness worked out at 0.076 ± 0.067.

For N24D, the abundance fitness was -0.003 ± 0.098.

Turning to N24G, the abundance fitness was -0.04 ± 0.037.

Consider R29S, for which the abundance fitness was -0.046 ± 0.05.

On to R29I, for which the abundance fitness is -0.081 ± 0.1.

For R29N, the abundance fitness turned out to be 0.037 ± 0.12.

In the case of R29D, the abundance fitness is -0.631 ± 0.17.

As to R29Y, the abundance fitness is -0.55 ± 0.23.

As for R29W, the abundance fitness is -1.06 ± 0.16.

Consider R29C, for which the abundance fitness is -0.205 ± 0.059.

As for R29T, the abundance fitness was -0.085 ± 0.066.

For R29F, the abundance fitness was -0.271 ± 0.15.

With R29P, the abundance fitness is -0.817 ± 0.19.

In the case of R29V, the abundance fitness is -0.129 ± 0.036.

As for R29M, the abundance fitness was -0.022 ± 0.056.

Turning to R29H, the abundance fitness was -0.225 ± 0.14.

Take R29A: the abundance fitness is -0.059 ± 0.033.

As for R29E, the abundance fitness worked out at 0.062 ± 0.058.

Regarding R29Q, the abundance fitness was 0.067 ± 0.063.

For R29G, the abundance fitness is -0.142 ± 0.035.

Turning to R29K, the abundance fitness is -0.18 ± 0.082.

In the case of R29L, the abundance fitness was -0.386 ± 0.05.

For I17W, the abundance fitness was -0.663 ± 0.1.

I17D: the abundance fitness is -0.506 ± 0.15.

Take I17R: the abundance fitness is -0.98 ± 0.087.

Consider I17P, for which the abundance fitness was -1.17 ± 0.24.

For I17S, the abundance fitness is -0.733 ± 0.091.

For I17K, the abundance fitness is -1.09 ± 0.29.

Take I17M: the abundance fitness was -0.562 ± 0.086.

In the case of I17F, the abundance fitness is -0.177 ± 0.13.

Turning to I17Y, the abundance fitness was -0.665 ± 0.2.

As for I17T, the abundance fitness was -0.6 ± 0.11.

Regarding I17G, the abundance fitness was -0.585 ± 0.081.

Regarding I17V, the abundance fitness is -0.106 ± 0.05.

For I17Q, the abundance fitness is -0.878 ± 0.14.

With I17C, the abundance fitness was -0.928 ± 0.26.

I17L: the abundance fitness is -0.022 ± 0.039.

I17E: the abundance fitness was -0.782 ± 0.2.

In the case of I17H, the abundance fitness is -0.831 ± 0.2.

For I17A, the abundance fitness is -0.715 ± 0.083.

Turning to G19N, the abundance fitness is -0.655 ± 0.35.

With G19L, the abundance fitness was -0.815 ± 0.13.

As to G19T, the abundance fitness was -0.732 ± 0.15.

As to G19H, the abundance fitness is -0.833 ± 0.5.

As for G19R, the abundance fitness is -0.609 ± 0.067.

For the variant G19M, the abundance fitness was -0.774 ± 0.17.

For the variant G19Q, the abundance fitness is -0.532 ± 0.11.

G19S: the abundance fitness is -0.473 ± 0.082.

Consider G19D, for which the abundance fitness was -0.321 ± 0.16.

As for G19I, the abundance fitness is -0.583 ± 0.25.

Turning to G19V, the abundance fitness is -0.991 ± 0.12.

In the case of G19W, the abundance fitness was -0.831 ± 0.13.

For the variant G19A, the abundance fitness was -0.481 ± 0.068.

For G19E, the abundance fitness is -0.431 ± 0.091.

On to G19K, for which the abundance fitness is -0.194 ± 0.13.

Consider G19P, for which the abundance fitness is -0.423 ± 0.1.

Take I28F: the abundance fitness is -0.65 ± 0.22.

With I28D, the abundance fitness is -0.524 ± 0.2.

I28E: the abundance fitness is -0.895 ± 0.2.

Take I28C: the abundance fitness was -0.633 ± 0.17.

Turning to I28M, the abundance fitness was -0.281 ± 0.049.

For I28R, the abundance fitness was -0.825 ± 0.095.

The record behind these values is the Human Domainome abundance scans (Beltran et al. 2025).
